In PMC11754801, “The molecular basis of Human FN3K mediated phosphorylation of glycated substrates” (Nature Communications, 2025):

B1: HsFN3KΔ (human FN3K with internal loop truncation: amino acids 117-138 replaced with a GSS linker) (enzyme)
chain: MEQLLRAELRTATLRAFGGPGAGCISEGRAYDTDAGPVFVKVNRRTQARQMFEGEVASLEALRSTGLVRVPRPMKVIDLPGGGAAFVMEHLKMKSLSSQASKLGEQMADLHLYNQKGSSYVDKFGFHTVTCCGFIPQVNEWQDDWPTFFARHRLQAQLDLIEKDYADREARELWSRLQVKIPDLFCGLEIVPALLHGDLWSGNVAEDDVGPIIYDPASFYGHSEFELAIALMFGGFPRSFFTAYHRKIPKAPGFDQRLLLYQLFNYLNHWNHFGREYRSPSLGTMRRLLK
modifications: intermolecular disulfide between Cys24 of each protomer
notes: human FN3K, Gene ID 64122, residues before the truncated loop (117-138); linker that replaces amino acids 117-138; human FN3K, Gene ID 64122, residues after the truncated loop (117-138); Two molecules in the asymmetric unit, domain-swapped dimer; also called apo-HsFN3K; source: E. coli Rosetta 2 (DE3), purified (Ni-NTA, cation exchange, TEV cleavage, SEC); not shown: His6, N-terminal, cleaved

Tests used:
[1] = molecular target: Full-length (FL) wild-type human (Hs) FN3K, purified from insect cells (human) (UniProt Q9H479); assay: SEC; preparative gel filtration during purification from Sf9 cells; HiLoad 16/60 Superdex 75; 10 mM HEPES pH 7.5, 200 mM NaCl, 0.5 mM TCEP; monomeric and dimeric peaks
[2] = molecular target: the molecule itself; assay: crystal structure; HsFN3KΔ crystals, space group P212121, two molecules in the asymmetric unit; apo and soaked with nucleotides and DMF

Row | Molecule | stoichiometry N [1] | binding result [2]
1 | Full-length (FL) wild-type human (Hs) FN3K, purified from insect cells (from UniProt Q9H479 1-309) (enzyme) | 2 | 
2 | B1 |  | binds
